Here are results for 4 molecules from patent US20150210768A1, “Methods and Compounds for Preventing, Treating and Diagnosing an Inflammatory Condition” (Westfaelische Wilhelms-Universitaet Muenster, priority 2012, published 2015).

Changes are numbered by the printed parent chain. Numbers in names are those of the source.

Experiment [1] addresses T1, his-tagged rhTLR4/MD2 (human, UniProt O00206 24-631; Q9Y6Y9 19-160).
T1 construct: Bought recombinant human complex (carrier free, R&D SYSTEMS), his-tagged; In the pull-down it was captured by anti-His antibody on Protein A/G agarose; in the ELISA it was coated on the plate; also called TLR4/MD2 complex; TRLR4/MD2
Kind of experiment: modified S100A9 ELISA, TLR4/MD2 coated on the plate, 2 ug/ml S100A9, absorbance at 450 nm. The method, then: Binding of S100A9 proteins to TLR4/MD2 was analysed by a modified S100A9-ELISA. Briefly, TLR4/MD2 was coupled to the wells of a 96-well plate and served as capturing molecule. After blocking of the unspecific binding sites by PBS/5% skim milk powder plates were washed three times. S100A9-wt or mutant S100A9 proteins were added at a concentration of 2 μg/ml each in the presence and absence of 100 μM Calcium and incubated for two hours at room temperature. Unbound S100A9 was removed by washing the plates for three times followed by the addition of a primary anti-S100A9-antibody (1 μg/ml, polyclonal, rabbit). After a washing step the secondary anti-rabbit-IgG-antibody coupled to HRP (1 μg/ml from Cell Signalling) was added. TMB was used as substrate for HRP to quantify binding by absorbance readings at 450 nm in an ELISA reader (Anthos Mirkosysteme).
Background: In an ELISA, binding on a coated surface is turned into a signal by an enzyme label.

The next experiment deals with human monocytes. The experiment can be described thus: Stimulation of human monocytes, TNFα release quantified by ELISA. The format is cell-based. The conditions noted are these: human monocytes stimulated for four hours; TNFα by ELISA; FIG. 1. The text has this:
Using standard techniques known in the art, the inventors expressed the individual human proteins S100A8 and S100A9 in recombinant form, and purified them. After generating homodimers and heterodimers, they analysed the properties of the complexes. FIG. 1 illustrates the stimulation of human monocytes for four hours with the indicated concentrations of (A) recombinant human S100A8, recombinant human S100A9 or human S100A8/S100A9, and (B) recombinant human S100A8/S100A9, recombinant human S100A8/S100A9 (N69A) or S100A8/S100A9 (E78A). TNFα released into the culture medium was quantified by means of ELISA.
Monocytes were isolated from human buffy coats by Ficoll-Paque and subsequent Percoll density centrifugation (Pharmacia, Freiburg, Germany) Cells were cultured in Teflon bags (Biofolie 25; Heraeus Instruments, Hanau, Germany) using McCoy's 5a medium supplemented with 15% fetal calf serum for 1 day before stimulation. Monocytes were incubated for 4 hours with different dosis of hS100A8, hS100A9, hS100A8/S100A9 or the modified proteins as indicated in the figures and TNF-α concentrations in supernatants were determined by ELISA (OptEIA, BD Biosciences, Germany).
Release of cytokine TNF-α was measured in the culture supernatants by ELISA (OptEIA, BD Biosciences). […]

Experiment [2] relates to (S100A8/S100A9)2 tetramers. Kind of experiment: Formation of (S100A8/S100A9)2 tetramers after site directed mutagenesis. More on the design: species or system human. The note with it: mutation in second calcium binding EF hand of S100A9. On the procedure:
For the expression of recombinant (rec) proteins without additional peptide sequences, the cDNAs from wt S100A8, wt S100A9 and the S100A9 EF-hand mutants were cloned into the pET11/20 vector [50-NdeI; 30-BamHI]. […] Bacteria were grown at 37° C. in 2×YT for 24 h. Afterwards bacteria were harvested, lysed and the inclusion bodies (IB) prepared. The IB pellet was dissolved in 8 M urea buffer and to establish proper refolding samples were adjusted to pH 2.0-2.5 first by adding hydrochloric acid. After 60 min incubation at room temperature, samples were stepwise dialyzed to get adapted to pH 7.4 for refolding in the presence of 2 mM DTT. After centrifugation (10 min, 60,000 g, 4° C.) to pellet aggregated material, samples were further dialyzed and applied to anion exchange column and gel filtration chromatography. To prepare heterodimeric complexes the recombinant proteins were mixed 1:1 in equimolar concentrations first. Samples were stored as stock solutions at −20° C. Correct refolding and complex formation was assessed by SDS-PAGE, CD spectroscopy, MALDI-MS and ESI-MS.

Experiment [3] concerns the target T1, his-tagged rhTLR4/MD2. The experiment can be described thus: pull-down on beads carrying TLR4/MD2, MALDI-TOF mass spectrometry of the eluate. On the procedure:
Anti-His antibody (5 μL, 0.5 mg/mL, Invivogen) and his-tagged rhTLR4/MD2 (5 μL, 1 mg/mL, carrier free, R&D SYSTEMS) were mixed and coupled to Protein A/G Agarose (50 μl, Pierce, Thermo Scientific). Trypsin digested peptides of S100A9 were added for 3 h at 4° C. in the presence of 1 mM Calcium. After washing of the beads in HBS/1 mM Ca-buffer for three times bound peptidic fragments were eluted by addition of 10 mM TRIS/2 mM EDTA-buffer and analysed by ESI-QIT- and MALDI-TOF-mass spectrometry. Identical experiments were performed to analyze the binding of the chemical synthesized peptides of S100A9 (aa63-79), S100A8 (aa55-71) and the corresponding control peptides aa63-79 AS and aa55-71 A3.

T1 sequence (O00206 24-631 limits assumed, chain 1 of 2): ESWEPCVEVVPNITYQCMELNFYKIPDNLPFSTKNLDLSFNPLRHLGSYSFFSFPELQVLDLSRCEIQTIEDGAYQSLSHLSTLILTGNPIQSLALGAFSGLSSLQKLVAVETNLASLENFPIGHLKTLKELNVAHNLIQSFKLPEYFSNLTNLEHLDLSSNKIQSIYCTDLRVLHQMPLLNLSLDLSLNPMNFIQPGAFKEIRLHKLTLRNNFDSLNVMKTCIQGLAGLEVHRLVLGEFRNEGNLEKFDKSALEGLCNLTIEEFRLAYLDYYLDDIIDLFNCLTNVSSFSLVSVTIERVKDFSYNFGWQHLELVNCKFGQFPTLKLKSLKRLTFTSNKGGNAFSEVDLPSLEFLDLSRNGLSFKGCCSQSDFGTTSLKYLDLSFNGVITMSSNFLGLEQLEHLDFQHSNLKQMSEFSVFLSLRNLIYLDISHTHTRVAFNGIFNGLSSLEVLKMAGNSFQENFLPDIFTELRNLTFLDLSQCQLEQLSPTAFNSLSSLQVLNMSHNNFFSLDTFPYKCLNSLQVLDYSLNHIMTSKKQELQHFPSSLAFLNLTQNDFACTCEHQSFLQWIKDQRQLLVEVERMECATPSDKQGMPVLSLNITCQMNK
T1 sequence (Q9Y6Y9 19-160 limits assumed, chain 2 of 2): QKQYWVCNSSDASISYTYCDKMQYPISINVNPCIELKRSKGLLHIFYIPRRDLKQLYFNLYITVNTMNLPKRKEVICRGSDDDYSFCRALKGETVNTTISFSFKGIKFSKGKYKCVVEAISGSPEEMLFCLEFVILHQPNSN

B1: recombinant human S100A9 (wild type, homodimer) (ligand)
chain: MTCKMSQLERNIETIINTFHQYSVKLGHPDTLNQGEFKELVRKDLQNFLKKENKNEKVIEHIMEDLDTNADKQLSFEEFIMLMARLTWASHEKMHEGDEGPGHHHKPGLGEGTP
notes: Uniprot P06702; used as a homodimer; also called S100A9 wt; S100A9-wt
As to B1, the binding result in the experiment with his-tagged rhTLR4/MD2 [1] is “binds”.

B2: S100A8/S100A9 (E78A): recombinant human S100A8/S100A9 with S100A9 EF hand II mutation E78A, prevents tetramer formation (protein)
chain 1: MLTELEKALNSIIDVYHKYSLIKGNFHAVYRDDLKKLLETECPQYIRKKGADVWFKELDINTDGAVNFQEFLILVIKMGVAAHKKSHEESHKE
chain 2: B1 chain with E78A
Take B2: the “activation of monocytes (TNFα released into the culture medium)” value in the experiment on human monocytes is given as “activation of monocytes that is comparable to the activation caused by homodimers”. Further, the tetramer formation entry in experiment [2] is reported as “inhibition of tetramer formation”.

B3: S100A8/S100A9 (N69A): recombinant human S100A8/S100A9 with S100A9 EF hand II mutation N69A, prevents tetramer formation (protein)
chain 1: B2 chain 1
chain 2: B1 chain with N69A
On to B3, for which, in the experiment on human monocytes, the “activation of monocytes (TNFα released into the culture medium)” value is listed as “activation of monocytes that is comparable to the activation caused by homodimers”. Moreover, in experiment [2], the tetramer formation entry is “inhibition of tetramer formation”.

B4: control peptide 63-79 5A of S100A9 (E64A, D65A, K72A, Q73A, E77A) (peptide)
peptide: MAALDTNADAALSFAEF
notes: Chemically synthesized control peptide, molecular weight 1758 g/mol; Positions follow the numbering of full-length S100A9 ('nomenclature of S100A9 maintained'); also called 63-79 A5; 63-79 AS
For the molecule B4, the binding result with his-tagged rhTLR4/MD2 [3] was “no binding”.
